{"source": "patent US7033991", "about": "(dated 2006)", "binders": {"B1": {"name": "Proteinase inhibitor 8 (PI8) (protein)", "chain": "MDDLCEANGTFAISLFKILGEEDNSRNVFFSPMSISSALAMVFMGAKGSTAAQMSQALCLYKDGDIHRGFQSLLSEVNRTGTQYLLRTANRLFGEKTCDFLPDFKEYCQKFYQAELEELSFAEDTEECRKHINDWVAEKTEGKISEVLDAGTVDPLTKLVLVNAIYFKGKWNEQFDRKYTRGMLFKTNEEKKTVQMMFKEAKFKMGYADEVHTQVLELPYVEEELSMVILLPDDNTDLAVVEKALTYEKFKAWTNSEKLTKSKVQVFLPRLKLEESYDLEPFLRRLGMIDAFDEAKADFSGMSTEKNVPLSKVAHKCFVEVNEEGTEAAAATAVVRNSRCSRMEPRFCADHPFLFFIRHHKTNCILFCGRFSSP"}}, "target": "Furin (literature) (UniProt P09958)", "sequence (P09958 108-715)": "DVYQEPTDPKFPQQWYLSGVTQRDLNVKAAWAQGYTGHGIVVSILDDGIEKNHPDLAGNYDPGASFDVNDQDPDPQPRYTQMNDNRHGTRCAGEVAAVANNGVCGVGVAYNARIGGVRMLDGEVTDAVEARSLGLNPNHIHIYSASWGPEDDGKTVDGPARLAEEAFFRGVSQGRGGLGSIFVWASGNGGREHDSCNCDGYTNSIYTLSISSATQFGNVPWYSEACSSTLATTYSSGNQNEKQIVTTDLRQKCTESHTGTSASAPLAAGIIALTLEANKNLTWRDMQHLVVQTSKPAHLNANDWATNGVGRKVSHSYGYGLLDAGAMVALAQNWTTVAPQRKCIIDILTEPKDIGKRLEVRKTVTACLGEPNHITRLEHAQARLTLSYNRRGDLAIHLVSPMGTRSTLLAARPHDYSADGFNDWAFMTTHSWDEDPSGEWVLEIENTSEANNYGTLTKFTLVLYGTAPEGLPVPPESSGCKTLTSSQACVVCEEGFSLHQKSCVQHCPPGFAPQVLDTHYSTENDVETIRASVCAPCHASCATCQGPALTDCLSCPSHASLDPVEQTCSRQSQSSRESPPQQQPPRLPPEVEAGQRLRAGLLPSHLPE", "data": [{"binder": "B1", "values": [{"measurement": "Ki", "result": 0.0538, "unit": "nM"}]}]}
